Key:
[1] = biological target: T1, BCMA (Homo sapiens, UniProt Q02223); conditions: background; read-out: affinity for BCMA; cited from earlier work
T1 sequence (Q02223 1-184): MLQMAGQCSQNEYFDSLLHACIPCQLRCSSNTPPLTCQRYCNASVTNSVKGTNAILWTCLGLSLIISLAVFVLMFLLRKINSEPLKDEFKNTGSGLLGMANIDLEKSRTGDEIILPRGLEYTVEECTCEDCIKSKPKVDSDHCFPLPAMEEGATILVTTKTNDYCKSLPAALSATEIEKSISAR

[2] = test system: primary myeloma cells from myeloma patients; experiment: T cell mediated killing of primary myeloma patient samples by anti-BCMA/CD3 bispecific (flow cytometry live cell count); assay type: cell-based, human; conditions: Patient MM00146; anti-BCMA_h2B4 bispecific; five days after treatment
Method: Human anti-BCMA (P5A2, A02_Rd4_0.6 nM_C01, A02_Rd4_6 nM_C16, Combo_Rd4_0.6 nM_C29, and P6E01 L3PY/H3TAQ) and human anti-CD3 (h2B4) antibodies were expressed as human IgG2dA engineered with EEEE or RRRR for bispecific exchange as describe in Example 8.
Cells were treated with 10-fold serially diluted bispecific antibody. […] EC50 was calculated by Prism software.

[3] = biological target: hCD3 (human CD3) (Homo sapiens, UniProt P07766); experiment: Kinetics and affinity of hCD3/human IgG interactions by SPR (Bio-Rad Proteon XPR36); assay type: binding
Sequence of hCD3 (human CD3) (P07766 23-126 limits assumed): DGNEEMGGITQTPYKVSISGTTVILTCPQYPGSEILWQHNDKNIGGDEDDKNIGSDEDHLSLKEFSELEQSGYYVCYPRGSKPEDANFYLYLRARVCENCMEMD
Sequence of hCD3 (human CD3) (P04234 22-105 partner limits assumed): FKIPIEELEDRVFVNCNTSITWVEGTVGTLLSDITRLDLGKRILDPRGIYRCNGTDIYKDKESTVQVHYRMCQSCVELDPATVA
Method: All experiments were performed on a Bio-Rad Proteon XPR36 surface Plasmon resonance biosensor (Bio-Rad, Hercules, Calif.). An array of anti-CD3 antibodies was prepared using an amine-coupling method on a Bio-Rad GLC Sensor Chip similar to that described in Abdiche, et al., Anal. Biochem. 411, 139-151 (2011). The analysis temperature for the immobilization was 25° C. and the running buffer was HBS-T+(10 mM HEPES, 150 mM NaCl, 0.05% Tween-20, pH 7.4). Channels were activated in the analyte (horizontal) direction by injecting a mixture of 1 mM ECD and 0.25 mM NHS for 3 minutes at a flow rate of 30 μL/min. IgGs were immobilized on the activated spots by injecting them in the ligand (vertical) direction at 20 μg/mL in 10 mM Acetate pH 4.5 buffer for 1.5 minutes at […]. The activated surfaces were blocked by injecting 1M ethanolamine, pH 8.5 in the analyte direction for 3 minutes at 30 μL/min.
The analysis temperature for the hCD3 binding analysis was 37° C. or 25° C. in a running buffer of HBS-T+, supplemented with 1 mg/mL BSA. A kinetic titration method was employed for the interaction analysis as described in Abdiche, et al. The hCD3 (human CD3) analyte was injected in the analyte direction using a series of injections from low to high concentration. The concentrations used were 0.08 nM, 0.4 nM, 2 nM, 10 nM and 50 nM (a 5-membered series, with a 5-fold dilution factor and top concentration of 50 nM). The association time for a given analyte dilution was two minutes. Immediately after the 50 nM hCD3 injection, dissociation was monitored for 2 hours. Prior to the hCD3 analyte injections, buffer was injected 5 times using the same association and dissociation times at the hCD3 analyte cycles to prepare a buffer blank sensorgram for double-referencing purposes (double referencing as described in Myszka, J. Mol. Recognit. 12, 279-284 (1999).
The sensorgrams were double-referenced and fit to a 1:1 Langmuir with mass transport kinetic titration model in BIAevaluation Software version 4.1.1 (GE Lifesciences, Piscataway, N.J.).

[4] = biological target: cyCD3ed (Macaca fascicularis, UniProt Q95LI5); experiment: Kinetics and affinity of cyCD3ed/human IgG interactions by SPR (Bio-Rad Proteon XPR36); assay type: binding, cynomolgus
Sequence of cyCD3ed (Q95LI5 22-117 limits assumed): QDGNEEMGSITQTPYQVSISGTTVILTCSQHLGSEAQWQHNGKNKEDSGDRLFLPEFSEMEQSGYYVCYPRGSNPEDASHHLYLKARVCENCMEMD
Sequence of cyCD3ed (Q95LI8 22-105 partner limits assumed): as the sequence (P04234 22-105 partner limits assumed) above, with I5V, N15K, I20V, S32T, D33N, I34N, T64A, S74N, V83L counted along it

In the case of “APRIL: a proliferation-inducing ligand, ligand of BCMA”, the Kd [1] is listed as 16 nM.

For “BAFF: B-cell activation factor, ligand of BCMA”, the Kd [1] is listed as 1000 nM.

B1: P5A2: anti-BCMA_H2B4 bispecific, human IgG2dA: anti-BCMA arm P5A2, anti-CD3 arm H2B4 (antibody, V domains shown)
VH: EVQLLESGGGLVQPGGSLRLSCAASGFTFSSYAMNWVRQAPGKGLEWVSAISDSGGSTYYADSVKGRFTISRDNSKNTLYLQMNSLRAEDTAVYYCARYWPMDIWGQGTLVTVSS
VL: EIVLTQSPGTLSLSPGERATLSCRASQSVSSSYLAWYQQKPGQAPRLLMYDASIRATGIPDRFSGSGSGTDFTLTISRLEPEDFAVYYCQQYGSWPLTFGQGTKVEIK
B1 showed an EC50 [2] of 0.946 nM.

B2: h2B4: anti-CD3 antibody (antibody, V domains shown)
VH: EVQLVESGGGLVQPGGSLRLSCAASGFTFSDYYMTWVRQAPGKGLEWVAFIRNRARGYTSDHNASVKGRFTISRDNAKNSLYLQMNSLRAEDTAVYYCARDRPSYYVLDYWGQGTTVTVSS
VL: DIVMTQSPDSLAVSLGERATINCTSSQSLFNVRSRKNYLAWYQQKPGQPPKLLISWASTRESGVPDRFSGSGSGTDFTLTISSLQAEDVAVYYCKQSYDLFTFGSGTKLEIK
In the case of B2, the “ka huCD3ed @25° C.” value ([3]; 25° C.) is reported as 370000 M⁻¹ s⁻¹, the “kd huCD3ed @25° C.” value ([3]; 25° C.) is reported as 0.002 s⁻¹ and the “ka huCD3ed @37° C.” value ([3]; 37° C.) is reported as 437000 M⁻¹ s⁻¹. For the same molecule, the “kd huCD3ed @37° C.” value ([3]; 37° C.) was 0.01369 s⁻¹, the “ka cyCD3ed @25° C.” value [4] was 390000 M⁻¹ s⁻¹ and the “kd cyCD3ed @25° C.” value [4] was 0.0015 s⁻¹.
